B1: Ribosomal RNA-processing protein 7 (Saccharomyces cerevisiae), P25368 (parent)
chain: MGIEDISAMKNGFIVVPFKLPDHKALPKSQEASLHFMFAKRHQSSNSNESDCLFLVNLPLLSNIEHMKKFVGQLCGKYDTVSHVEELLYNDEFGLHEVDLSALTSDLMSSTDVNEKRYTPRNTALLKFVDAASINNCWNALKKYSNLHAKHPNELFEWTYTTPSFTTFVNFYKPLDIDYLKEDIHTHMAIFEQREAQAQEDVQSSIVDEDGFTLVVGKNTKSLNSIRKKILNKNPLSKHENKAKPISNIDKKAKKDFYRFQVRERKKQEINQLLSKFKEDQERIKVMKAKRKFNPYT
partner: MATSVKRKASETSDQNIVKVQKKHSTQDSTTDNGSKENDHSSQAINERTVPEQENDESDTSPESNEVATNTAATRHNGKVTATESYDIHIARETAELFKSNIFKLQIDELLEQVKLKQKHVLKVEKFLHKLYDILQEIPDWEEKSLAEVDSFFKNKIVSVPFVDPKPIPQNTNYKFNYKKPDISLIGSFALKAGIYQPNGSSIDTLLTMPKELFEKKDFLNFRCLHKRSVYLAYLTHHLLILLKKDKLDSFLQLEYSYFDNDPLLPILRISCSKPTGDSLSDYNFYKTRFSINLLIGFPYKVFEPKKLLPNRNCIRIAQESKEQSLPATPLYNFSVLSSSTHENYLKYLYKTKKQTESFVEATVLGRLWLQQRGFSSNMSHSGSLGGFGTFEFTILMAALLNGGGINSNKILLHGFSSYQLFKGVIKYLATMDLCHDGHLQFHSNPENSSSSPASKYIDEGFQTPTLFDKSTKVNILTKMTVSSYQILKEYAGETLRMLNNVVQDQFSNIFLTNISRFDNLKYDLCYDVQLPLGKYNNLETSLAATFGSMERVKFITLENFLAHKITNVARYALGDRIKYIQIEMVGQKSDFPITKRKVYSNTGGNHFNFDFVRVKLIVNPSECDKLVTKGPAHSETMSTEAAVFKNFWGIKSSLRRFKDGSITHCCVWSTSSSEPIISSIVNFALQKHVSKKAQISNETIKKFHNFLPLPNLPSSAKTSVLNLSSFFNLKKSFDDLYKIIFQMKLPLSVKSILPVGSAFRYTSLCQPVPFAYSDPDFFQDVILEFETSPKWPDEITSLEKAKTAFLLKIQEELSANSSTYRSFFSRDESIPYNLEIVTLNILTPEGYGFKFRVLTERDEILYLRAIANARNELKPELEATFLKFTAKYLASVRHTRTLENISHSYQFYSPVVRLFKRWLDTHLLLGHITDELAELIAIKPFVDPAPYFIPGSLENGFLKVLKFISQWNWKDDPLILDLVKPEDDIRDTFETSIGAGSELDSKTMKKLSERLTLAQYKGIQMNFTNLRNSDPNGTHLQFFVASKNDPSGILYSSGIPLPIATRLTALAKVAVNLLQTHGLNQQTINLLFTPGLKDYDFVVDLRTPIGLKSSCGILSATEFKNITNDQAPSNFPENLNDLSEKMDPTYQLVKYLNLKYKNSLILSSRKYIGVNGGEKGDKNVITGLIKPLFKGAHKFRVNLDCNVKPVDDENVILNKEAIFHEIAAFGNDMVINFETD

Variants of: B1
Conditions: with utp22_yeast UTP22, P53254

Row | Variant | effect of a mutation on the interaction
1 | F38D | disrupting interaction strength
